Common to all, as to test: high-throughput RNA pulldown from lysate on Ni-NTA beads; HRP: 50 mM Tris pH 8, 150 mM NaCl, 1 mM beta-mercaptoethanol, 50 ug/ml BSA, 3 ug/ml yeast RNA, 0.5% heparin; ITC and FP: Tris pH 8, 200 mM KCl, 5% glycerol; MST: 50 mM Tris pH 8, 200 mM NaCl, 1 mM DTT, BSA, heparin, 0.05% Tween 20
Conditions in all cases: tags: N-terminal His-eGFP

Data set [1] concerns the target T1, GFP-9S library array, motif 4 ND N98Y;D124E (synthetic construct, N98Y;D124E).
T1 chain: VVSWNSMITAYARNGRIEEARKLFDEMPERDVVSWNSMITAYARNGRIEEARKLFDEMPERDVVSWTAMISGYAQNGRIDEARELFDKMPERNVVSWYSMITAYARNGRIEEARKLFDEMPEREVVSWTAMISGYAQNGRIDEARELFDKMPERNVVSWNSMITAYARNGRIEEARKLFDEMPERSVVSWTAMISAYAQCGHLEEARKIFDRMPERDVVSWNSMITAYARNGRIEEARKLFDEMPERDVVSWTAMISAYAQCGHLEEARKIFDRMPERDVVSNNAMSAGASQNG

Data set [2] deals with T2, GFP-9S library array, motif 4 ND N98H;D124F (synthetic construct, N98H;D124F).
T2 chain: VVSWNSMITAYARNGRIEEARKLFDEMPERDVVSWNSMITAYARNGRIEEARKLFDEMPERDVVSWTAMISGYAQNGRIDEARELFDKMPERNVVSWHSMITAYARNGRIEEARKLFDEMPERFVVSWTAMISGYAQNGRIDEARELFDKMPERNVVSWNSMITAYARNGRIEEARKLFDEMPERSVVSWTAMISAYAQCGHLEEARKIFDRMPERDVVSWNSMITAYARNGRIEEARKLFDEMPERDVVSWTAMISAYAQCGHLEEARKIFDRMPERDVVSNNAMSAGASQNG

The target in data set [3] is T3, GFP-9S library array, motif 4 ND N98T;D124Q (synthetic construct, N98T;D124Q).
T3 chain: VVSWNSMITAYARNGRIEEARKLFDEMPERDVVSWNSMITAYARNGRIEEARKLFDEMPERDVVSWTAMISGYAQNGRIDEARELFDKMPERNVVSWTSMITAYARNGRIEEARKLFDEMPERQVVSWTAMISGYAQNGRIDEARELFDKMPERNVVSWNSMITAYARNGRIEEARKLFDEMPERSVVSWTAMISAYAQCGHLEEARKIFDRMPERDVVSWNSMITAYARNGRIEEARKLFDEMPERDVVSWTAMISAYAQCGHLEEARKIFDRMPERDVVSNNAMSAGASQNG

The target in data set [4] is T4, GFP-9S library array, motif 4 ND N98T (synthetic construct, N98T).
T4 chain: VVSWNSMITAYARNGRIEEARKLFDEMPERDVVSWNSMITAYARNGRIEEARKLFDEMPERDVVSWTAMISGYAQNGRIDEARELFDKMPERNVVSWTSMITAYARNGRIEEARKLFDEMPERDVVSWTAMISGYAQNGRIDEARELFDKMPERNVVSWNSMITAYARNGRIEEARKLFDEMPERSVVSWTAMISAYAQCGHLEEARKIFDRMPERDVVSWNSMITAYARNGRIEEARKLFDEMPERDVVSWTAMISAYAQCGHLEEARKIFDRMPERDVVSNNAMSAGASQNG

In data set [5] the target is T5, GFP-9S library array, motif 4 ND N98H;D124T (synthetic construct, N98H;D124T).
T5 chain: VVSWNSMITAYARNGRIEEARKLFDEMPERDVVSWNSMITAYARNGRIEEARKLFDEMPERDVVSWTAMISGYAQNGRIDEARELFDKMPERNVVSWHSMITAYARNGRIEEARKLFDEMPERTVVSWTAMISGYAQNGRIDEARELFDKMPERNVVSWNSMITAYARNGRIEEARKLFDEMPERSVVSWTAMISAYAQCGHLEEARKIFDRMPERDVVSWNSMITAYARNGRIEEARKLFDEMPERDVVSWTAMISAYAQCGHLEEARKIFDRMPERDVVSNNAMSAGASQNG

Data on four molecules can be found in paper PMC8809517, “Cofactor-independent RNA editing by a synthetic S-type PPR protein”.

What is called Kd is a measure of binding affinity in units of concentration.

B1: IR-rpoA-A (ssRNA)
RNA: AUUAAACGUGA
Regarding B1, the Kd is 488 nM in data set [1] (label: 5' IRDye 800CW); 320 nM in data set [2] (label: 5' IRDye 800CW); 107 nM in data set [3] (label: 5' IRDye 800CW); 91.7 nM in data set [4] (label: 5' IRDye 800CW); 103 nM in data set [5] (label: 5' IRDye 800CW).

B2: IR-rpoA-U (ssRNA)
RNA: AUUAUACGUGA
Take B2: the dissociation constant Kd in data set [1] (label: 5' IRDye 800CW) turned out to be 286 nM; in data set [2] (label: 5' IRDye 800CW), 204 nM; in data set [3] (label: 5' IRDye 800CW) it was 194 nM; in data set [4] (label: 5' IRDye 800CW) it was 23 nM; in data set [5] (label: 5' IRDye 800CW), 24.9 nM.

B3: Cy5-rpoA (ssRNA)
RNA: AUUACACGUGA
Consider B3, for which the Kd is 128 nM in data set [1] (label: 5' Cy5); 140 nM in data set [2] (label: 5' Cy5); 157 nM in data set [3] (label: 5' Cy5); 97.5 nM in data set [4] (label: 5' Cy5); 50.9 nM in data set [5] (label: 5' Cy5).

B4: Cy5-rpoA-G (ssRNA)
RNA: AUUAGACGUGA
B4: the Kd in data set [1] (label: 5' Cy5) is 169 nM; in data set [2] (label: 5' Cy5) it was 134 nM; in data set [3] (label: 5' Cy5), 128 nM; in data set [4] (label: 5' Cy5), 5.06 nM; in data set [5] (label: 5' Cy5), 75 nM.
